Test results reported in patent EP4552657A1, “RADIOPHARMACEUTICAL COMPLEXES AND COMBINATIONS” (priority 2023, dated 2025).

How the values were obtained:
[1] = Chelation of bismuth-213 by iTLC after Ac-225 labelling; format: physicochemical; conditions: measured immediately and on Day 1 and Day 2 at room temperature
Method: In brief, an iTLC paper impregnated with a silica gel plate was cut to obtain 11 cm × 1 cm strips. Application point (1 cm), cut point (4 cm) and end of run point (10 cm) was marked and 2 µl of TAC was applied on to iTLC strips. The strips were developed in 3 mL mobile phase (0.1 M Citrate in 0.9%(v/v) NaCl pH 5.5) in LSC vials. […] When the liquid front had reached the marked end point, the strips were removed from the vials and placed on an aluminum foil to dry. The strips were cut in two at 4 cm: the shorter "application" half (A) and the longer "front" half (F). Each part was carefully folded and placed at the bottom of scintillation vials. […] The radiochemical purity (% RCP) of the samples (defined as [(radioactivity of application section)/(total radioactivity on strip)] × 100) was calculated. Table 2: Radiochemical purity (% RCP) of samples included in this invention.
Pelgi-macropa labeling was performed for 60 min at room temperature the two DOTA compounds were labeled at 60°C for 60 min. The percentage chelation of Bi-213 was determined using iTLC and measured on the Germanium Detector using the specific energy of Bi-213. After initial radiolabelling, compounds were measured immediately and on Day 1 and Day 2 after incubation at room temperature. […]

LK-2 lung cancer model = assay: In vivo antitumor efficacy in LK-2 model; design: species or system mice
Text: Female BALB/c nude mice were inoculated subcutaneously with 1×10^6 LK-2 cells. When tumors reached an average size of ~190mm^3, animals were randomized into treatment groups (n=12 per group) and treatment was started.
(**, P=0.0024. ****, […]) (Figure 28).

[2] = tested on: C4-2, JIMT-1, T-47D, NCI-N87 and Calu-3; conditions: 2 to 40 kBq/µg; 6 days; vs isotype control
Method: In vitro cytotoxicity of Ac-225-ACC was determined in cell lines expressing different levels of relevant target receptors. Cells were seeded at an appropriate cell density in relevant cell media. One day after seeding, the radiolabeled compounds at the specific activity of 2-20 kBq/µg and radioactive concentration of 50-100 kBq/ml were titrated in parallel with a radiolabeled isotype control. Cells were incubated for 5-6 days. Cell viability was determined by cell counting using Hoechst and PI staining and analyzed on Operetta CLS High Content Analysis System (Perkin Elmer) or by ATP measurements using CellTiterGlo (Promega).
C4-2, JIMT-1, T-47D, NCI-N87 and Calu-3 were seeded at an appropriate cell density in the following cell media respectively: RPMI + 10% FBS + 1x MEM-NEAA + 1x HEPES + 1x Na Pyruvate; DMEM + 10% FBS; RPMI + 10% FBS + 10 µg/ml insulin; RPMI + 10% FBS; RPMI + 10% FBS. […] Cells were treated for 6 days and subsequentially cell viability was determined using CellTiterGlo (Promega).

human TROP2 = target: T1, human TROP2 (Homo sapiens, UniProt P09758); assay: Flow cytometry, cell surface binding on JIMT-1, MCF-7, T-47D and ZR-75-1 cells; conditions: compared to unconjugated Sacituzumab
T1 construct: JIMT-1, MCF-7, T-47D and ZR-75-1 cells expressing human TROP2; endogenous in cells; host or cells: JIMT-1, MCF-7, T-47D, ZR-75-1
T1 sequence (P09758 27-323): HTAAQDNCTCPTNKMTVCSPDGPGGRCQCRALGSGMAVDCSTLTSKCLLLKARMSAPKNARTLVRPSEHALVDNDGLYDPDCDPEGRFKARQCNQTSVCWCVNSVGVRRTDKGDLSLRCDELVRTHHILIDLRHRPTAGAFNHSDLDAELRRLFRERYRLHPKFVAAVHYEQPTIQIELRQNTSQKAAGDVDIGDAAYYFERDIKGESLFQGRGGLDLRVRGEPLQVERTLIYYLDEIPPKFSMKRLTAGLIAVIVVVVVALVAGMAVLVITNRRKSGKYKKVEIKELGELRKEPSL
Method: (§1) The in vitro binding properties of antibody-chelator conjugates were assessed in various relevant cell lines and compared to their corresponding unconjugated antibody. Briefly, samples were diluted in buffer (PBS/3% FBS) and added to relevant cell lines. After completion of the binding step (60 min at 4°C), the cells were washed and incubated with secondary antibody conjugated with phycoerythrin to detect antibodies containing a human IgG Fc region. After 60 min at 4°C, the cells were washed, and fluorescence on the cells was determined by flow cytometry using Guava EasyCyte 8HT (Luminex).

human glypican-3 [3] = target: T2, human glypican-3 (Homo sapiens, UniProt P51654); assay: Flow cytometry, cell surface binding on Hep3B2 cells; design: Hep3B2 cells expressing human glypican-3; endogenous in cells; host or cells: Hep3B2; conditions: compared to unconjugated Codrituzumab
Method: as §1
Cell surface binding of Codrituzumab-macropa was compared to unconjugated Codrituzumab and was investigated by flow cytometry using Hep3B2 cells expressing human glypican-3 (Figure 11).

[4] = tested on: Huh-7 hepatoma expressing GPC3; assay: In vivo efficacy in Huh-7 xenograft; design: species or system Mice
Text: • Figure 1. […] Size-exclusion UV chromatogram of Codrituzumab-macropa. • Figure 9. […] Size-exclusion UV chromatogram of Labetuzumab-macropa. • Figure 18. […] Internalization of Labetuzumab. […] Size-exclusion UV chromatogram of Sacituzumab-macropa. • Figure 25. […] Size-exclusion UV chromatogram of Indusatumab-macropa. • Figure 30. […] Size-exclusion UV chromatogram of Telisotuzumab-macropa. • Figure 36.

[5] = tested on: HepG2 and Hep3B2.1-7 cells; conditions: 2 MBq/mg, 5 kBq/ml; 6 days; vs radiolabeled isotype control
Method: Cells were seeded at an appropriate cell density in relevant cell media. One day after seeding, the radiolabeled compounds at the specific activity of 2-20 kBq/µg and radioactive concentration of 50-100 kBq/ml were titrated in parallel with a radiolabeled isotype control. Cells were incubated for 5-6 days. Cell viability was determined by cell counting using Hoechst and PI staining and analyzed on Operetta CLS High Content Analysis System (Perkin Elmer) or by ATP measurements using CellTiterGlo (Promega).
HepG2 and Hep3B2.1-7 cells were seeded at an appropriate cell density in the cell media MEM + 10% FBS. HepG2 cells have higher GPC3 expression on the cell surface than Hep3B2.1-7 cells. One day after seeding the compounds at the specific activity of 2 MBq/mg and radioactive concentration of 5 kBq/ml were titrated in parallel with a radiolabeled isotype control. Cells were incubated for 6 days and subsequentially cell viability was determined using Hoechst and PI staining and analyzed on Operetta CLS High Content Analysis System (Perkin Elmer).

[6] = tested on: GPC3 low-expressing hepatoma xenograft model Huh-7; conditions: 168h; 500 kBq/kg IV, 0,75 mg/kg total protein
Method: Female RJ: NRMI-Foxn1nu/nu mice were inoculated with 2 × 10^6 Huh-7 cells on the right flank. Animals were pre-treated with 200 µg/mouse unspecific IgG2a antibody 24 h prior to hot dosing.

human FolRa = target: T3, human FolRa (Homo sapiens, UniProt P15328); assay: Flow cytometry, cell surface binding on OUMS-23 and T-47D cells; conditions: compared to the unconjugated antibody
T3 construct: OUMS-23 and T-47D cells expressing human FolRa; endogenous in cells; host or cells: OUMS-23, T-47D
Method: as §1
Cell surface binding of Farletuzumab-macropa and Farletuzumab-DOTA was compared to unconjugated Farletuzumab and investigated by flow cytometry using OUMS-23 and T-47D cells expressing human FolRa (Figure 43).
Cell surface binding of Mirvetuximab-macropa and Mirvetuximab-DOTA was compared to unconjugated Mirvetuximab and investigated by flow cytometry using OUMS-23 and T-47D cells expressing human FolRa (Figure 47).

GUCY2C = GUCY2C (Homo sapiens, UniProt P25092); assay: Flow cytometry, cell surface binding on CHO-GUCY2C cells; design: expressed in transfected cells; host or cells: CHO; conditions: compared to unconjugated Indusatumab
Method: as §1
Cell surface binding of Indusatumab-macropa was compared to unconjugated Indusatumab and investigated by flow cytometry using CHO-GUCY2C cells expressing human GUCY2C (Figure 31).

CEACAM5 [7] = target: T4, CEACAM5 (Homo sapiens, UniProt P06731); assay: Immunoreactive fraction (IRF), binding to CEACAM5-coated beads; conditions: 2 kBq/µg
T4 sequence (P06731 35-702): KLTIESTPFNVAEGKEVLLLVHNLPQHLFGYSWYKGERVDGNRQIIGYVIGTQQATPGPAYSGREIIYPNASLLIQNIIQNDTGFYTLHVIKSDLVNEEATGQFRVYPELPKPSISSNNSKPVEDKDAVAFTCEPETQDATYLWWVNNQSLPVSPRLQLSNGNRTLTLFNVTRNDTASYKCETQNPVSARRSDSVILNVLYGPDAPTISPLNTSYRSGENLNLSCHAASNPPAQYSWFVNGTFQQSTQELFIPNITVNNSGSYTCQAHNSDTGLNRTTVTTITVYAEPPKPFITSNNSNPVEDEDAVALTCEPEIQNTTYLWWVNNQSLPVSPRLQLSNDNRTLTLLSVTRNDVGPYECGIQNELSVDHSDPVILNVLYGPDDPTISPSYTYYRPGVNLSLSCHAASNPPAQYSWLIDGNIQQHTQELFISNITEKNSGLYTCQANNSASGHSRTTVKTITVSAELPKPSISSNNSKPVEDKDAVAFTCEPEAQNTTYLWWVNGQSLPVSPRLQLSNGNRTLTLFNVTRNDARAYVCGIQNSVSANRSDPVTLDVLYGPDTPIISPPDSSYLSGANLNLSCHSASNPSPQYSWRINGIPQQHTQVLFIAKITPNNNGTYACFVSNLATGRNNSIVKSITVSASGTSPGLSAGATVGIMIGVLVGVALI
Method: Shortly after completion of the radiolabeling, the binding was assessed by measuring the fraction of radiolabeled antibody-chelator conjugate bound to relevant antigen coated magnetic beads (Thermo Fisher Scientific). In short, beads were placed in 2 mL Eppendorf tubes in 90 µL buffer (PBS/0.1% Tween 20/1% BSA). The radiolabeled compounds were diluted to 5 Bq/µL in buffer and 50 Bq were added to each bead-containing tube. The binding lasted for 60 min while shaking at 750 rpm at room temperature. After completion of the binding step, magnet (DynaMag-2) was used to separate the beads from […] supernatant. The radio activities in the supernatant and in the beads of each sample were measured using a high purity Germanium detector (Ortec). […] Total binding was defined as [(activity in beads […])/ (total activity)] × 100.
Shortly after completion of the radiolabeling, the binding of each sample to CEACAM5-coated M270-carboxy Dynabeads was determined.

CEACAM5 [8] = target: T4, CEACAM5; assay: Flow cytometry, cell surface binding on MKN-45 and HT-55 cells; design: MKN-45 and HT-55 cells expressing human CEACAM5; endogenous in cells; host or cells: MKN-45, HT-55; conditions: compared to unconjugated Labetuzumab
Method: as §1
Cell surface binding of Labetuzumab-macropa was compared to unconjugated Labetuzumab and investigated by flow cytometry using MKN-45 and HT-55 cells expressing human CEACAM5 (Figure 19).

human glypican-3 [9] = target: T2, human glypican-3; assay: ELISA, binding to recombinant human glypican-3; conditions: compared to unconjugated Codrituzumab
Method: The relevant antigen was immobilized on ELISA plate by absorption. The plate was washed (PBS with 0.1% Tween 20) and incubated with blocking buffer (PBS + 3% BSA) for 2 h ± 1 h to reduce unspecific binding. Relevant antibodies and ACCs diluted in assay buffer (PBS with 0.05% Tween 20 + 1.5% BSA). The blocking buffer was discarded, and the antibodies and ACCs and controls were applied in triplicates to the plate according to a plate set-up defined in each protocol. After incubation for 1 h ± 30 min at RT, the plate was washed. A horse radish peroxidase (HRP)-conjugated secondary antibody binding specifically to the primary mAb (anti-human IgG-HRP) was added to the plate. After incubation for 1 hour ± 30 min at RT, the plate was washed. A chromogenic substrate (2,2'-azino-bis (3-ethylbenzothiazoline-6-sulphonic acid) (ABTS)), for HRP leading to the formation of a green color was added to the plate and used for detection. The absorbance of the colored reaction product was measured with an absorbance plate reader, e.g. EnVision 2103 Multilabel Reader from Perkin Elmer, or iMark Microplate Absorbance Reader from Bio-Rad.
Absorbance against the log of the antibody concentration was plotted on the GraphPad Prism software. […]

T3 sequence (P15328 25-257): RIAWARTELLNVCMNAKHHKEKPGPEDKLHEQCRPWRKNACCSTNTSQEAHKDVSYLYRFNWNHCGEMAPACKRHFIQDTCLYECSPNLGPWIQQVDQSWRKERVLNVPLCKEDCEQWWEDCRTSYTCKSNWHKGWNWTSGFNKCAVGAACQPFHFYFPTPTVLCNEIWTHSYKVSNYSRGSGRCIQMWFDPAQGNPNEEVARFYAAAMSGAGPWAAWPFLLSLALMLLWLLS

Substance: pelgifatamab-DOTA: pelgifatamab-DOTA (CAR 12.7) labeled with Actinium-225
- chelation of Bismuth-213 [1]: not chelated to the same extent with DOTA

Substance: Ac-225-macropa-Sacituzumab: Ac-225 macropa complex bound to the anti-TROP2 monoclonal antibody Sacituzumab
- tumor growth inhibition (LK-2 lung cancer model; 100 or 200 kBq/kg, i.v., single dose day 0): strong tumor growth inhibition at both doses tested
- Antitumor activity compared to Trodelvy (LK-2 lung cancer model; Trodelvy 20 mg/kg i.v. day 0,7,14): significantly improved as compared to Trodelvy
- cytotoxicity [2]: strong and specific cytotoxicity

Substance: Sacituzumab-macropa
- EC50 (human TROP2): comparable EC50 as unconjugated Sacituzumab

Substance: Codrituzumab-macropa
- EC50 (human glypican-3 [3]): comparable EC50 as unconjugated Codrituzumab

Substance: Ac-225-macropa-Codrituzumab: Ac-225 macropa complex bound to the anti-GPC3 monoclonal antibody Codrituzumab
- anti-tumor activity ([4]; 500 kBq/kg single dose IV, repeat dose 250 kBq/kg on day 25, compared to isotype control): significantly higher anti-tumor activity
- body weight loss ([4]; during the course of the study): No body weight loss
- cytotoxicity [5]: strong and specific cytotoxicity
- tumor uptake [6]: significantly higher tumor uptake at 168h compared to Ac-225-macropa-isotype-control

Substance: Farletuzumab-DOTA [reference compound]
- EC50 (human FolRa): higher EC50 than unconjugated Farletuzumab in both cell lines

Substance: Indusatumab-macropa
- EC50 (GUCY2C): comparable EC50 as unconjugated Indusatumab

Substance: Farletuzumab-macropa
- EC50 (human FolRa): comparable EC50 in both cell lines as unconjugated Farletuzumab

Substance: Mirvetuximab-DOTA [reference compound]
- EC50 (human FolRa): higher EC50 than unconjugated Mirvetuximab in OUMS-23 cells

Substance: Ac-225-macropa-Labetuzumab
- IRF (CEACAM5 [7]; 33 µg beads): 43%
- IRF (CEACAM5 [7]; 100 µg beads): 88%
- IRF (CEACAM5 [7]; 333 µg beads): 97%

Substance: Labetuzumab-macropa
- EC50 (CEACAM5 [8]): comparable EC50 as unconjugated Labetuzumab

Substance: Pelgi-macropa: actinium-225 complexed to a macropa chelator covalently linked to the fully human PSMA-targeting antibody pelgifatamab (CAR 0.8)
- chelation of Bismuth-213 [1]: chelated by macropa

Substance: Mirvetuximab-macropa
- EC50 (human FolRa): comparable EC50 in both cell lines as unconjugated Mirvetuximab

Substance: Codrituzumab-DOTA
- EC50 (human glypican-3 [9]): higher EC50 than unconjugated Codrituzumab
